B1: scFv 2447_3B07 (scFv)
scFv: QVQLVESGGVVVQPGGSLRLSCAASGFTFDDYAMHWVRQAPGRGLEWVSLTSWDGGSTYYADSVKGRFTISRDNSKNSLYLQMNSLRAEDTALYYCAKDHSSGWYNGGMDVWGQGTMVTVSSGGGGSGGGGSGGGASSYELTQDPAVSVALGQTVRITCQGDSLRSYYASWYQQKPGQAPVLVIYGKNNRPSGIPDRFSGSSSGNTASLTITGAQAEDEADYYCNSRDSSGNHVVFGGGTKLTVL
B2: scFv 2447_2H08 (scFv)
scFv: EVQLVQSGAEVKKPGASVKVSCKASGYTFTNYGISWVRQAPGQGLEWMGWISAYNGNTNYAQKLQGRVTMTTDTSTSTAYMELRSLRSDDTAVYYCARDPHILTGYYRGGWFDPWGQGTTVTVSSGGGGSGGGGSGGGASSYELTQDPAVSVALGQTVTITCQGDSLRTSYAGWLQQKPGQAPVLVLYGKTSRPSGIPDRFSGSTSGNTASLTITGAQAEDEAEYFCHSRDSNDNYLEVVFGGGTKLTVL
B3: scFv 2445_1F09 (scFv)
scFv: EVQLLETGGGLIQPGGSLRLSCAASGFTVSSNYMSWVRQAPGKGLEWVSVIYSGGSTYYADSVKGRFTISRDNSKNTLYLQMNSLRAEDTAVYYCARDRGWNHGMDVWGQGTLVTVSSGGGGSGGGGSGGGASQSGLTQPPSASGTPGQRVTISCSGGSSEVGSRYVSWYQQLPGTAPRLLIYKNDRRPSGVPDRFSGSKSGSSASLAISGLRSEDEADYYCAAWDDSLNGYVFGTGTKLTVL
B4: scFv 2447_3H02 (scFv)
scFv: EVQLLESGGGLVQPGRSLRLSCAASGFTFDDYAMHWVRQAPGKGLEWVSGISWDSGSIGYADSVKGRFTISRDNAKNSLYLQMNSLRAEDTALYYCAKDVSSGWYWYAFDIWGQGTLVTVSSGGGGSGGGGSGGGASSYELTQDPAVSVALGQTVRITCQGDILRSYYASWYQQKPGQAPVLVIYGKNNRPSGIPDRFSGSSSGNTASLTITGAQAEDEADYYCNSRDSSGNRVVFGGGTKLTVL
notes: also called #9
B5: scFv 2447_3H08 (scFv)
scFv: EVQLLESGGGLVQPGRSLRLSCAASGFTFDDYAMHWVRQAPGKGLEWVSGISWNSGSIDYADSVKGRFTISRDNSKNTLYLQMNSLRAEDTAVYYCARDRSSGWYTGSFDYWGQGTLVTVSSGGGGSGGGGSGGGASSYELTQDPAVSVALGQTVRITCQGDSLRSYYASWYRQKPGQAPVLVIYGKNNRPSGIPDRFSGSSSGNTASLTIIGAQAEDEADYYCQSRDSSDNRVLFGGGTKVTVL
notes: also called #10

Key:
[1] = target: T1, C subunit of human MUC1 expressed in HEK293T cells (HEK293T-v1) (human, UniProt P15941 1098-1255, limits assumed); experiment: flow cytometry (PE MFI, corrected to G03 at 380 ug/mL) on HEK293T-v1 cells expressing MUC1 C subunit
T1 construct: domain: C subunit of MUC1; also called MUC1-C
T1 sequence (looked up): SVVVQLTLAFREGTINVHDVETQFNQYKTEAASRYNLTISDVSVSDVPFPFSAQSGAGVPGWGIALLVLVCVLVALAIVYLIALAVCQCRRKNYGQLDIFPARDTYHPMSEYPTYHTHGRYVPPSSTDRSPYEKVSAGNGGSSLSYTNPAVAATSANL
Protocol: (§1) The soluble scFv prepared in Example 1 was diluted 5-fold to prepare a total of 8 serial dilutions. Each serial dilution was 380 μg/mL, 76 μg/mL, 15.2 μg/mL, 3.04 μg/mL, 0.608 μg/mL, 0.1216 μg/mL, 0.02432 μg/mL, 0.004864 μg/mL. A buffer used in soluble scFv dilution and cell washing was PBS containing 2% FBS and 10 mM EDTA. Four kinds of cells were prepared at a density of 1×10⁶/mL, respectively, and put in a 96 well U-bottom cell culture plate at a density of 1×10⁵/100 μl/well, followed by centrifugation at 1500 RPM for 5 minutes. The soluble scFv prepared previously was treated in an amount of 50 μl/well. The cells were left at 4° C. for 1 hour. 150 μl/well of the cell washing buffer was added thereto and then mixed, followed by centrifugation at 1500 RPM for 5 minutes. The supernatant was discarded, and 200 μl/well of the cell washing buffer was added thereto and then mixed, followed by centrifugation at 1500 RPM for 5 minutes. A goat anti-human IgG Fc-biotin antibody (Invitrogen, A18821) was diluted 500-fold, and 50 μl/well thereof was treated. The cells were left at 4° C. for 20 minutes. 150 μl/well of the cell washing buffer was added thereto and then mixed, followed by centrifugation at 1500 RPM for 5 minutes. The supernatant was discarded, and 200 μl/well of the cell washing buffer was added thereto and then mixed, followed by centrifugation at 1500 RPM for 5 minutes. PE-Streptavidin (BD Pharmigen, 554061) was diluted 1000-fold, and 50 μl/well thereof was treated. The cells were left at 4° C. for 20 minutes. 150 μl/well of the cell washing buffer was added thereto and then mixed, followed by centrifugation at 1500 RPM for 5 minutes. The supernatant was discarded, and 200 μl/well of the cell washing buffer was added thereto and then mixed, followed by centrifugation at 1500 RPM for 5 minutes. 80 μl/well of the cell washing buffer was added and mixed, followed by flow cytometry.
The affinity of the soluble scFv to the mucin1-expressing cells was confirmed by PE MFI values from the results of the flow cytometry. Each cell line without soluble scFv was stained with another fluorescent antibody (Goat anti-human IgG Fc-biotin antibody, PE-Streptavidin), which was used as a negative control value, and each cell line was treated with G03 at a concentration of 380 μg/mL, which was used as a positive control value, and MFI value was corrected as follows: […]

[2] = target: T1, C subunit of human MUC1 expressed in …; experiment: flow cytometry (PE MFI, corrected to G03 at 380 ug/mL) on HEK293T-v1 cells expressing MUC1 C subunit; 293T-v1 cells
Protocol: as §1, with “PE-Streptavidin (BD Pharmigen, 554061) was diluted 1000-fold, and 50 μl/well thereof was treated. The cells were left at 4° C. for 20 minutes. 150 μl/well of the cell washing buffer was added thereto and then mixed, followed by centrifugation at 1500 RPM for 5 minutes. The supernatant was discarded, and 200 μl/well of the cell washing buffer was added thereto and then mixed, followed by centrifugation at 1500 RPM for 5 minutes. 80 μl/well of the cell washing buffer was added and mixed, followed by flow cytometry.” left out

Row | Binder | EC50 [1] [µg/mL] | EC50 [2] [µg/mL]
1 | B1 | 3.86 | –
2 | B2 | 21.7 | –
3 | B3 | – | > 380
4 | B4 | 1.41 | –
5 | B5 | 2.57 | –

Reference: patent US20250281533A1 (LG CHEM, published 2025)
